Data: patent US20150111231A1 (SHIONOGI, published 2015)
Groups on a side chain read outwards from the residue. Primed or numbered codes have the meaning given here. No end group written: not given here. *: point of attachment. Biotin = O=C1N[C@H]2[C@H](CS[C@H]2CCCCC(=O)*)N1; PEG2′ = not defined here

B1: Fragment 1 (peptide)
peptide: DSVPANTENEVE
notes: partial peptide of the 5H10 immunogen; also called fragment peptide 1
B2: biotinylated N-terminal cysteine-containing neoepitope peptide (peptide)
peptide: C([Maleimide-PEG2′-Biotin])TEEISEVKM
notes: also called biotinylated peptide; biotynylated peptide
B3: anti-neoepitope antibody 4G4 (antibody, IgG2a, V domains shown)
VH: EMKLVESGGGLVEPGGSLKLSCAASGFTFSNYAMSWVRQTPDKRLEWVASIGRGGSTFYPDSVKGRFTISRDRVRNILYLQMNSLRSEDTAIYYCRVIYSQSISFDYWGQGTTLTVSS
VL: not shown
notes: It was biotinylated when used as capture antibody in the sandwich ELISA; also called anti-sAPP β monoclonal antibody (4G4)
B4: Fragment 2 (peptide)
peptide: NEVEPVDARPAA
notes: partial peptide of the 5H10 immunogen; also called fragment peptide 2
B5: Fragment 3 (peptide)
peptide: RPAADRGLTTRP
notes: partial peptide of the 5H10 immunogen; also called fragment peptide 3
B6: Immunogen peptide (peptide)
peptide: DSVPANTENEVEPVDARPAADRGLTTRPGSGLTNC
notes: also called C-terminal cysteine-containing internal structural peptide; Immunogen 2 peptide

Experiments:
[1] = biological target: T1, anti-internal structure antibody 5H10; assay: competitive ELISA of 5H10, unlabelled peptide varied against the biotinylated internal structural peptide
T1 construct: also called internal antibody 5H10; internal structural antibody
T1 sequence (VH, as listed by the source, chain 1 of 2): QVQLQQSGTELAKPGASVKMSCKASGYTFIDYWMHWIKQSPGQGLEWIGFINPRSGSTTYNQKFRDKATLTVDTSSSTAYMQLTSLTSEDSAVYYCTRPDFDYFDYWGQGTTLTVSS
T1 sequence (VL, as listed by the source, chain 2 of 2): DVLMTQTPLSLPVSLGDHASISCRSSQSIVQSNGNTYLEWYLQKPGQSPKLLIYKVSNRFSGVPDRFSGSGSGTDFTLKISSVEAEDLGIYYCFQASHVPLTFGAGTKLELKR
Experimental: Reactivity of the antibody, 5H10 to the four fragment peptides 1˜4 (SEQ ID No.: 8, 9, 10, 11) was evaluated by competitive ELISA in the same method as Example 1.

[2] = biological target: B3; assay: competitive ELISA: 4G4 captured on anti-mouse IgG plate, unlabelled immunogen peptide (SEQ ID No. 2) varied against the biotinylated neoepitope peptide with streptavidin-HRP
Experimental: 10 μl of the antibody solution containing 4G4 and 10 μl of the immunogen peptide (SEQ ID No.:2) or the long peptide ([…] SEQ ID No. 3 SIGMA) or human sAPPβ (MESO SCALE DISCOVERY) or human sAPPα (MESO SCALE DISCOVERY) and 10 μl of 0.04 ng the biotynylated peptide and 2 ng streptavidin-HRP in buffer A were placed into the above anti-mouse IgG-immobilized plates and incubated overnight at 4° C. The plates were washed three times and 25 μl of TMB substrate solution (DAKO) was added and incubated for 30 min. The reaction was finally stopped by addition of 25 μl of 0.05NH2SO4, and optical absorbance was measured at wavelength of 450 nm (FIG. 3).

[3] = biological target: B2; assay: screening ELISA: hybridoma supernatant on anti-mouse IgG plate, biotinylated peptide and streptavidin-HRP

Row | Binder | binding result [1] | also measured
1 | B1 | no binding (tested: about 150 nM) | 
2 | B2 |  | binding result [2]: binds
3 | B3 |  | binding result [3]: binds
4 | B4 | no binding (tested: about 150 nM) | 
5 | B5 | no binding (tested: about 150 nM) | 
6 | B6 | binds | 
